Consider four molecules from article PMC8882607 (Journal of Molecular Biology, 2022).

Where only a bound is given, the exact number is not on record here.

Holding throughout (experiment): ITC
Background: In ITC the heat of successive injections is recorded.

Assay [1] addresses G3BP1_(NTF2) F33A mutant (human, UniProt Q13283 1-139, F33A).
Assay [2] deals with G3BP1_(NTF2) F124A mutant (human, UniProt Q13283 1-139, F124A).
For assay [3], the target named is G3BP1_(NTF2) V11A mutant (human, UniProt Q13283 1-139, V11A).
G3BP1_(NTF2) V11A mutant, sequence (Q13283 1-139 V11A): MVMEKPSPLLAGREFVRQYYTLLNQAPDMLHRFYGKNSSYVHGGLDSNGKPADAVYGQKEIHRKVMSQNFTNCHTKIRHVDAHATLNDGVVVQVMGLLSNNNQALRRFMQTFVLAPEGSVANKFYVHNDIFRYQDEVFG
The target of assay [4] is G3BP1_(NTF2) Q18A mutant (human, UniProt Q13283 1-139, Q18A).
G3BP1_(NTF2) Q18A mutant, sequence (Q13283 1-139 Q18A): as the sequence (Q13283 1-139 V11A) above, with A11V, Q18A counted along it
Assay [5] concerns the target NTF2-like domain of human G3BP1 (residues 1-139) (human, UniProt Q13283 1-139).

NTF2-like domain of human G3BP1 (residues 1-139), sequence (Q13283 1-139): as the sequence (Q13283 1-139 V11A) above, with A11V counted along it
G3BP1_(NTF2) F124A mutant, sequence (Q13283 1-139 F124A): as the sequence (Q13283 1-139 V11A) above, with A11V, F124A counted along it
G3BP1_(NTF2) F33A mutant, sequence (Q13283 1-139 F33A): as the sequence (Q13283 1-139 V11A) above, with A11V, F33A counted along it

Consider MSDNGPQNQRNAPRITFGGPSDSTG [SARS-CoV-2 N_(1–25) peptide (residues 1-25 of the N protein)], for which the dH in assay [1] was -21.3 kcal/mol; in assay [4] it was -15.1 kcal/mol. The “fold reduction of binding against wild-type G3BP1_(NTF2)” value was approximately 20 fold in assay [2] and approximately 10 fold in assay [3]. As for MSDNGPQNQRNAPRITFTGPSDSTG [SARS-CoV-2 N_(1–25) peptide, G18T mutant], the “fold reduction of binding affinity against wild-type N_(1–25)” value in assay [5] was approximately 6 fold. Turning to MSDNGPQNQRNAPRIAFGGPSDSTG [SARS-CoV-2 N_(1–25) peptide, T16A mutant], the “fold reduction of binding against wild-type N_(1–25)” value in assay [5] was approximately 3 fold. As for MSDNGPQNQRNAPRATFGGPSDSTG [SARS-CoV-2 N_(1–25) peptide, I15A mutant], the “fold reduction of binding against wild-type N_(1–25)” value in assay [5] was more than 10 fold.
